Test results from the supplement of paper PMC6757056.
± gives the standard deviation of the averaged measurements.

B1: library; a variant is named by its letters at N, in order (parent)
chain: GCUGUCACCGGUGUAUUACCCUAGUGGUCGACCGGUCUGAUGAGUCUNNNNNNAGACGAAACAGC

How the values were obtained:
[1] = variants of: B1; assay: normalized RNA/DNA level with ligand (relative to sTRSVctl = 100) (log10 (% of sTRSVctl)); ligand: hypoxanthine (xanthine aptamer); higher = less ribozyme self-cleavage, higher mRNA level; settings: ligand concentration (+) RNA-Seq: 5 mM, HEK293T, reporter: mCherry (pCS4076), ligand present: yes
How it was run: (§1)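 HEK293T cells were transfected with library plasmids carrying ribozyme switches linked to an mCherry reporter, or an eGFP reporter in some ligand experiments, at 4 µg per well of a 6-well plate, with any ligand added 1 h beforehand. After 72 h, total RNA was extracted with EDTA, reverse-transcribed, amplified, barcoded and sequenced. RNA level was defined as RNA reads over DNA reads, normalized to a spiked-in non-cleaving sequence or to the top-ranked sequences. That value was multiplied by 100 and converted to log10, the top set was 25 sequences, and only sequences with ≥100 DNA reads were retained.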

[2] = variants of: B1; assay: normalized RNA/DNA level without ligand (relative to sTRSVctl = 100) (log10 (% of sTRSVctl)); ligand: hypoxanthine (xanthine aptamer); higher = less ribozyme self-cleavage, higher mRNA level; settings: HEK293T, reporter: mCherry (pCS4076), ligand present: no
How it was run: as §1

Variant | normalized RNA/DNA level with ligand (log10) [1] | normalized RNA/DNA level without ligand (log10) [2]
GGAAAU | 1.9 ± 0.071 | 1.77 ± 0.053
GGAAAC | 1.939 ± 0.018 | 1.84 ± 0.014
GCGUCU | 1.98 ± 0.085 | 1.772 ± 0.0055
GCGUCG | 1.89 ± 0.037 | 1.53 ± 0.041
ACUGGG | 1.859 ± 0.0034 | 1.44 ± 0.086
ACUGGC | 1.96 ± 0.036 | 1.844 ± 0.016
AGAAGU | 1.85 ± 0.034 | 1.51 ± 0.029
AGAAGC | 1.918 ± 0.0099 | 1.7002 ± 0.0015
ACUGUU | 1.9396 ± 0.00019 | 1.81 ± 0.05
ACUGUC | 1.99 ± 0.026 | 1.898 ± 0.0079
ACUGUA | 1.93 ± 0.062 | 1.78 ± 0.036
GCGUGC | 1.949 ± 0.016 | 1.619 ± 0.006
ACUAGC | 1.881 ± 0.0075 | 1.79 ± 0.075
ACUAGU | 1.88 ± 0.052 | 1.71 ± 0.07
GCUACA | 1.95 ± 0.02 | 1.85 ± 0.025
GCUACU | 1.95 ± 0.059 | 1.89 ± 0.026
UCUAUU | 1.93 ± 0.057 | 1.86 ± 0.023
UCUAUA | 1.893 ± 0.016 | 1.858 ± 0.013
CCUAGG | 1.86 ± 0.055 | 1.77 ± 0.046
CCUAGA | 1.962 ± 0.016 | 1.84 ± 0.057

Variant | normalized RNA/DNA level with ligand (log10) [1] | normalized RNA/DNA level without ligand (log10) [2]
CCUAGC | 1.91 ± 0.08 | 1.842 ± 0.0069
CCUAGU | 1.919 ± 0.0097 | 1.872 ± 0.013
ACUUUC | 1.98 ± 0.046 | 1.95 ± 0.044
ACUUUA | 1.903 ± 0.015 | 1.82 ± 0.067
ACUUUG | 1.91 ± 0.043 | 1.57 ± 0.021
ACUUUU | 1.92 ± 0.044 | 1.868 ± 0.012
UCUUCG | 1.93 ± 0.086 | 1.7 ± 0.11
UCUUCA | 1.97 ± 0.11 | 1.8691 ± 0.00053
UCUUCC | 2.022 ± 0.017 | 1.92 ± 0.024
UCUUCU | 1.979 ± 0.0024 | 1.94 ± 0.099
GCUCCU | 2.027 ± 0.006 | 1.981 ± 0.015
GCUCCC | 1.93 ± 0.043 | 1.84 ± 0.02
GCUCCG | 1.88 ± 0.12 | 1.38 ± 0.075
GCUCCA | 1.936 ± 0.018 | 1.81 ± 0.025
GCUGGU | 1.96 ± 0.034 | 1.824 ± 0.013
GCUGGA | 1.904 ± 0.011 | 1.8 ± 0.074
CCUAUU | 1.95 ± 0.063 | 1.9 ± 0.039
CCUAUC | 2.03 ± 0.028 | 2.04 ± 0.03
CCUAUG | 1.92 ± 0.13 | 1.86 ± 0.083
UCUAAC | 1.9378 ± 0.00086 | 1.85 ± 0.013

Variant | normalized RNA/DNA level with ligand (log10) [1] | normalized RNA/DNA level without ligand (log10) [2]
GCUAAA | 1.95 ± 0.043 | 1.77 ± 0.023
UCUAGG | 1.96 ± 0.072 | 1.92 ± 0.089
UCUAGU | 1.99 ± 0.051 | 1.68 ± 0.019
UGAACC | 1.9742 ± 0.00065 | 1.92 ± 0.057
UGAACG | 1.91 ± 0.034 | 1.823 ± 0.0083
AGAAAG | 1.82 ± 0.039 | 1.41 ± 0.029
CCUUUU | 1.966 ± 0.019 | 1.892 ± 0.018
CCUUUG | 1.96 ± 0.09 | 1.81 ± 0.076
CCUUUC | 2 ± 0.1 | 1.98 ± 0.046
CCUUUA | 1.948 ± 0.019 | 1.84 ± 0.035
UGAAUG | 1.9 ± 0.0011 | 1.75 ± 0.061
UGAAUU | 1.93 ± 0.021 | 1.897 ± 0.014
UGAAUA | 1.93 ± 0.026 | 1.86 ± 0.019
UGAAUC | 1.943 ± 0.013 | 1.96 ± 0.022
GCUGCA | 1.98 ± 0.021 | 1.83 ± 0.034
GCUGCC | 1.96 ± 0.15 | 1.83 ± 0.093
GCUGCU | 1.92 ± 0.076 | 1.884 ± 0.013
AGAACA | 1.91 ± 0.044 | 1.799 ± 0.0065
